Laboratory results taken from US20260049141A1 (OSE IMMUNOTHERAPEUTICS, published 2026).
Blank lines part the entries; values can stand above or below the binder they belong to.

Columns and labels:
[1] = target: T1, Recombinant human CD28 (bio-techne, reference 342-CD-200) (human, UniProt P10747 19-152); test: SPR (Biacore T200), hCD28 immobilized on CM5, antibody flowed at 0-3000 nM, bivalent model fit
T1 construct: Bought protein; also called hCD28 recombinant protein; human recombinant CD28 protein
Protocol: (§1) hCD28 recombinant protein (bio-techne, reference 342-CD-200) was immobilized to the CM5 sensorship at 20 ug/mL in Na Acetate pH5 in the Biacore T200. […] The antigen-antibody association kinetics was followed for 2 minutes, and the dissociation kinetics was followed for 10 minutes. The association and dissociation curves were fit to a bivalent model.

[2] = target: Human CD28 expressed on Jurkat T cells (human, UniProt P10747 19-220); test: cell-based or functional assay
[3] = target: T2, Biotinylated human PD-1 (AcroBiosystems, reference EP-101) (human, UniProt Q15116 25-167, biotinylated); test: competitive ELISA: recombinant human PD-L1 immobilized, antibody mixed with a fixed concentration of biotinylated human PD-1, streptavidin-peroxidase; blocked ligand PD-L1
T2 construct: Kit reagent; called both biotinylated Human PD1 and Biotin-PD-1Fc; also called Biotin-PD-1Fc; not described
T2 sequence (Q15116 25-167): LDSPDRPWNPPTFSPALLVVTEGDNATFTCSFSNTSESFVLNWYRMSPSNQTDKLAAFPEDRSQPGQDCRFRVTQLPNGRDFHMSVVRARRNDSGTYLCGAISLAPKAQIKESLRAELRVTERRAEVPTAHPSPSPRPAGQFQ
Protocol: (A) PD-1 binding ELISA assay. […] Revelation was performed using an anti-human Fc antibody coupled to peroxidase. Colorimetry was determined at 450 nm using TMB substrate. Data were normalized by the condition anti-PD-1*2 or anti-PD-1*1 at 20 nM; considered as 100% of binding for bivalent and monovalent figure respectively. N=2 independent experiments per condition. (B) Antagonist PD-1/PDL1 ELISA assay. […] Revelation was performed with a streptavidin coupled to peroxidase. Colorimetry was determined at 450 nm using TMB substrate. Percentage of antagonist activity was determined by the formula 100-((DO450 nM*100)/DO450 nM No Ab). N=2 independent experiments. (C) CD28 binding MSD assay. […] Revelation was performed with an anti-human Fc antibody coupled to SulfoTag. Electric signal was determined using MSD system. (D) Cis-activity Jurkat T cell-based bioassay. […] IL-2 secretion was quantified in the culture supernatant after 48 hours of stimulation and data were normalized by the condition without antibody. N=2-7 independent experiments.

[4] = target: T1, Recombinant human CD28 (bio-techne, …); test: SPR (Biacore T200), hCD28 immobilized on CM5, antibody flowed; monovalent anti-CD28 scFv (Format B1), not the bivalent anti-CD28 antibody
Protocol: as §1

B4: Anti PD-1*1/anti CD28*1 scFv Format B1 (anti-PD-1 clone 1 / anti-CD28 clone 1) (bispecific antibody, V domains shown)
VH 1: QIQLVQSGSELKKPGASVKVSCKASGYTFTHYAMNWVRQAPGQGLEWMGWINTNTGEPTYAQGFTGRFVFSLDTSVSTAYLQISSLKAEDTAVYYCAREREPGMDNWGQGTLVTVSS
VL 1: DVVMTQSPLSLPVTLGQPASISCRSSQSLVHANTNTYLEWYQQRPGQSPRLLIYKVSNRFSGVPDRFSGSGSGTDFTLKISRVEAEDVGVYYCFQGTHVPNTFGQGTKLEIK
VH 2: QVKLQESGPGLVAPSQSLSITCTVSGFSLTSYGVYWVRQPPGKGLEWLGVIWAGGSTNYNSALMSRLSISKDNSKSQVFLKMNSLQTDDTAMYYCARDHYGSYGDYYAMDYWGQGTTVTVSS
VL 2: DIVLTQSPASLAVSLGQRATISCRASESVEYYDTSLMQWYQQKPGQPPKLLIYAASSVESGVPARFSGSGSGTDFSLNIHPVEEDDIAMYFCQQSRKVPWTFGGGTKLEIK
notes: Only the variable domains are tied to the molecule by name; also called anti PD-1/anti CD28 (Format B1); anti-PD-1*1/anti-CD28*1 scFv clone 1
Kd [1]: 5400 nM
koff [1]: 0.0249 s⁻¹
kon [1]: 4620 M⁻¹ s⁻¹
Kd [4]: ~5000 nM
IC50 (read off the curve) [3]: ~1 nM

B5: anti-PD-1/anti-CD28 multifunctional molecule Format C2 (bivalent anti-PD-1 antibody fused to an anti-CD28 scFv, clone 1) (bispecific antibody, V domains shown)
VH 1: QIQLVQSGSELKKPGASVKVSCKASGYTFTHYAMNWVRQAPGQGLEWMGWINTNTGEPTYAQGFTGRFVFSLDTSVSTAYLQISSLKAEDTAVYYCAREREPGMDNWGQGTLVTVSS
VL 1: DVVMTQSPLSLPVTLGQPASISCRSSQSLVHANTNTYLEWYQQRPGQSPRLLIYKVSNRFSGVPDRFSGSGSGTDFTLKISRVEAEDVGVYYCFQGTHVPNTFGQGTKLEIK
VH 2: QVKLQESGPGLVAPSQSLSITCTVSGFSLTSYGVYWVRQPPGKGLEWLGVIWAGGSTNYNSALMSRLSISKDNSKSQVFLKMNSLQTDDTAMYYCARDHYGSYGDYYAMDYWGQGTTVTVSS
VL 2: DIVLTQSPASLAVSLGQRATISCRASESVEYYDTSLMQWYQQKPGQPPKLLIYAASSVESGVPARFSGSGSGTDFSLNIHPVEEDDIAMYFCQQSRKVPWTFGGGTKLEIK
notes: See Format C1; full chains not tied to the label in the text
IC50 (read off the curve) [3]: ~2 nM

B6: Format B1 anti-PD-1*1/anti-CD28*1 scFv clone 3 (bispecific antibody)
chain 1: not shown
chain 2: PAPELLGGPSVFLFPPKPKDTLMISRTPEVTCVVVDVSHEDPEVKFNWYVDGVEVHNAKTKPREEQYASTYRVVSVLTVLHQDWLNGKEYKCKVSNKALPAPIEKTISKAKGQPREPQVYTLPPCRDELTKNQVSLWCLVKGFYPSDIAVEWESNGQPENNYKTTPPVLDSDGSFFLYSKLTVDKSRWQQGNVFSCSVMHEALHNHYTQKSLSLSPGK
VL: DVVMTQSPLSLPVTLGQPASISCRSSQSLVHANTNTYLEWYQQRPGQSPRLLIYKVSNRFSGVPDRFSGSGSGTDFTLKISRVEAEDVGVYYCFQGTHVPNTFGQGTKLEIK
IL-2 secretion by PD-1 negative Jurkat T cells (cis-activity bioassay, 100 nM), fold versus no antibody [2]: 2 fold

B7: anti-PD-1/anti-CD28 multifunctional molecule Format C5 (scFv anti-CD28 fused to C-terminal of bivalent anti-PD1, clone 1) (bispecific antibody, V domains shown)
VH 1: QIQLVQSGSELKKPGASVKVSCKASGYTFTHYAMNWVRQAPGQGLEWMGWINTNTGEPTYAQGFTGRFVFSLDTSVSTAYLQISSLKAEDTAVYYCAREREPGMDNWGQGTLVTVSS
VL 1: DVVMTQSPLSLPVTLGQPASISCRSSQSLVHANTNTYLEWYQQRPGQSPRLLIYKVSNRFSGVPDRFSGSGSGTDFTLKISRVEAEDVGVYYCFQGTHVPNTFGQGTKLEIK
VH 2: QVKLQESGPGLVAPSQSLSITCTVSGFSLTSYGVYWVRQPPGKGLEWLGVIWAGGSTNYNSALMSRLSISKDNSKSQVFLKMNSLQTDDTAMYYCARDHYGSYGDYYAMDYWGQGTTVTVSS
VL 2: DIVLTQSPASLAVSLGQRATISCRASESVEYYDTSLMQWYQQKPGQPPKLLIYAASSVESGVPARFSGSGSGTDFSLNIHPVEEDDIAMYFCQQSRKVPWTFGGGTKLEIK
IC50 (read off the curve) [3]: ~0.3 nM

Second part, the binder after the results:

Kd [1]: 75 nM
koff [1]: 0.000842 s⁻¹
kon [1]: 11200 M⁻¹ s⁻¹
B1: anti-CD28 bivalent clone 1 antibody with no anti-PD-1 valency (antibody, V domains shown)
VH: QVKLQESGPGLVAPSQSLSITCTVSGFSLTSYGVYWVRQPPGKGLEWLGVIWAGGSTNYNSALMSRLSISKDNSKSQVFLKMNSLQTDDTAMYYCARDHYGSYGDYYAMDYWGQGTTVTVSS
VL: DIVLTQSPASLAVSLGQRATISCRASESVEYYDTSLMQWYQQKPGQPPKLLIYAASSVESGVPARFSGSGSGTDFSLNIHPVEEDDIAMYFCQQSRKVPWTFGGGTKLEIK
notes: also called bivalent anti-CD28 antibody; Bivalent anti-CD28 (positive control)

IL-2 secretion by PD-1 negative Jurkat T cells (cis-activity bioassay, 100 nM), fold versus no antibody [2]: 4 fold
B2: Format B1 anti-PD-1*1/anti-CD28*1 scFv clone 2 (bispecific antibody)
chain 1: not shown
chain 2: PAPELLGGPSVFLFPPKPKDTLMISRTPEVTCVVVDVSHEDPEVKFNWYVDGVEVHNAKTKPREEQYASTYRVVSVLTVLHQDWLNGKEYKCKVSNKALPAPIEKTISKAKGQPREPQVYTLPPCRDELTKNQVSLWCLVKGFYPSDIAVEWESNGQPENNYKTTPPVLDSDGSFFLYSKLTVDKSRWQQGNVFSCSVMHEALHNHYTQKSLSLSPGK
VL: DVVMTQSPLSLPVTLGQPASISCRSSQSLVHANTNTYLEWYQQRPGQSPRLLIYKVSNRFSGVPDRFSGSGSGTDFTLKISRVEAEDVGVYYCFQGTHVPNTFGQGTKLEIK

IC50 (read off the curve) [3]: ~1 nM
B3: anti-PD-1/anti-CD28 multifunctional molecule Format B3 (scFv anti-CD28 fused to C-terminal of monovalent anti-PD1, clone 1) (bispecific antibody, V domains shown)
VH 1: QIQLVQSGSELKKPGASVKVSCKASGYTFTHYAMNWVRQAPGQGLEWMGWINTNTGEPTYAQGFTGRFVFSLDTSVSTAYLQISSLKAEDTAVYYCAREREPGMDNWGQGTLVTVSS
VL 1: DVVMTQSPLSLPVTLGQPASISCRSSQSLVHANTNTYLEWYQQRPGQSPRLLIYKVSNRFSGVPDRFSGSGSGTDFTLKISRVEAEDVGVYYCFQGTHVPNTFGQGTKLEIK
VH 2: QVKLQESGPGLVAPSQSLSITCTVSGFSLTSYGVYWVRQPPGKGLEWLGVIWAGGSTNYNSALMSRLSISKDNSKSQVFLKMNSLQTDDTAMYYCARDHYGSYGDYYAMDYWGQGTTVTVSS
VL 2: DIVLTQSPASLAVSLGQRATISCRASESVEYYDTSLMQWYQQKPGQPPKLLIYAASSVESGVPARFSGSGSGTDFSLNIHPVEEDDIAMYFCQQSRKVPWTFGGGTKLEIK

IC50 (read off the curve) [3]: ~1 nM
B8: anti-PD-1/anti-CD28 multifunctional molecule Format C1 (bivalent anti-PD-1 antibody fused to an anti-CD28 scFv, clone 1) (bispecific antibody, V domains shown)
VH 1: QIQLVQSGSELKKPGASVKVSCKASGYTFTHYAMNWVRQAPGQGLEWMGWINTNTGEPTYAQGFTGRFVFSLDTSVSTAYLQISSLKAEDTAVYYCAREREPGMDNWGQGTLVTVSS
VL 1: DVVMTQSPLSLPVTLGQPASISCRSSQSLVHANTNTYLEWYQQRPGQSPRLLIYKVSNRFSGVPDRFSGSGSGTDFTLKISRVEAEDVGVYYCFQGTHVPNTFGQGTKLEIK
VH 2: QVKLQESGPGLVAPSQSLSITCTVSGFSLTSYGVYWVRQPPGKGLEWLGVIWAGGSTNYNSALMSRLSISKDNSKSQVFLKMNSLQTDDTAMYYCARDHYGSYGDYYAMDYWGQGTTVTVSS
VL 2: DIVLTQSPASLAVSLGQRATISCRASESVEYYDTSLMQWYQQKPGQPPKLLIYAASSVESGVPARFSGSGSGTDFSLNIHPVEEDDIAMYFCQQSRKVPWTFGGGTKLEIK
notes: Full chains not tied to the label in the text
